Laboratory results taken from patent publication EP0896625B1.

Legend:
Test in all cases: cell-based or functional assay
rEDN(1-21)rOncG26 = target: rEDN(1-21)rOncG26
[1] = target: recombinant human eosinophil-derived neurotoxin (human)
[2] = target: [Met-(-1)]rOncG20 (Rana pipiens)
[3] = target: [Met-(-1)]rOnc (Rana pipiens)
[4] = target: rEDN(1-21)rOnc (human; Rana pipiens)
[5] = target: Native ONCONASE (Rana pipiens)

“Placental ribonuclease inhibitor (from UniProt P13489 2-461)” gave a Fold Difference, (+)PRI against (-)PRI (rEDN(1-21)rOncG26) of 21 fold, an IC50 (ng/ml), (+)PRI, inhibition of protein synthesis in the rabbit reticulocyte lysate (rEDN(1-21)rOncG26) of 600 ng/mL and a Fold Difference, (+)PRI against (-)PRI [1] of over 30.7 fold. For the same substance, the IC50 (ng/ml), (+)PRI, inhibition of protein synthesis in the rabbit reticulocyte lysate [1] was over 40 ng/mL, the Fold Difference, (+)PRI against (-)PRI [2] was 0.9 fold and the IC50 (ng/ml), (+)PRI, inhibition of protein synthesis in the rabbit reticulocyte lysate [2] was 24 ng/mL. It also gave a Fold Difference, (+)PRI against (-)PRI [3] of 1.4 fold, an IC50 (ng/ml), (+)PRI, inhibition of protein synthesis in the rabbit reticulocyte lysate [3] of 140 ng/mL and an IC50 (ng/ml), (+)PRI, inhibition of protein synthesis in the rabbit reticulocyte lysate [4] of 3200 ng/mL. It also gave a Fold Difference, (+)PRI against (-)PRI [5] of 1.2 fold and an IC50 (ng/ml), (+)PRI, inhibition of protein synthesis in the rabbit reticulocyte lysate [5] of 0.24 ng/mL.
